Measurements from patent publication US9611296B2, “Peptides that bind to amino-truncated amyloid-beta-peptide and use of said peptides” (FORSCHUNGSZENTRUM JUELICH GMBH, priority 2012, dated 2017).
Square brackets hold non-standard residues; d marks the D form. Ends that are not written are not given here.

Target: T1, Aβ plaques (Homo sapiens, UniProt P05067)
T1 construct: have an increased Aβ 1-42 expression and plaque formation; from tissue; host or cells: frontal brain slices of transgenic Tg2576 mice aged 10 to 11 months
Assay: Ex vivo histological staining of plaques in frontal brain slices of transgenic Tg2576 mice with FITC-labelled D-peptides (fluorescence microscopy, Congo red control)
Assay type: binding
Settings: frontal brain slices (cortex) of Tg2576 mice aged 10 to 11 months; for region of the plaques stained (more intensely): FITC-labelled peptide
Source text: The binding properties of the available peptides to Aβ plaques were investigated. For staining frontal brain slices, use was made of preparations of transgenic Tg2576 mice aged from 10 to 11 months, which due to the human APP gene bearing the Swedish mutation have an increased Aβ 1-42 expression and plaque formation. In these mice, it was also possible to detect AβpE3-x as a plaque constituent.
For the tests, the peptides were synthetically produced and labelled by a commercial supplier, A test was then carried out, ex vivo, to determine the regions of the plaques to which binding had mainly taken place. It must be assumed here that Aβ plaques consist of different Aβ species, such as, for example, Aβ1-40, 1-42 and AβpE3-x.
All the peptides are combined with fluorescein isothiocyanate (FITC) for detection by means of fluorescence microscopy.
As a further control, the same tests were carried out after Congo red staining, which served to verify the plaque structures (bottom image in each case). It must be assumed that the plaques are composed of different Aβ isoforms (Aβ 1-40, 1-42, AβpE3-x). Slices from wild-type animals without plaque formation were also treated. In these tests, no Congo red or fluorescein fluorescence could be detected (data not shown).

T1 sequence (P05067 672-713 limits assumed): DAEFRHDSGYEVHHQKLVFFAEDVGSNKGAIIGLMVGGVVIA

Row | Sequence | region of the plaques stained (more intensely) | type of plaques stained by the peptide
1 | KMEHPNHPPPQR ([dK][dM][dE][dH][dP][dN][dH][dP][dP][dP][dQ][dR]) [D4, dodecameric D-peptide selected by mirror image phage display against aggregation-nucleus-free AβpE3-x] | ring-shaped structures around the inner core of the plaques were stained more intensely | only plaques having a relatively dense structure, consisting of Aβ fibrils, were stained, but not small and diffuse plaques
2 | AGERLKFIDEHV ([dA]G[dE][dR][dL][dK][dF][dI][dD][dE][dH][dV]) [D6] | ring-shaped structures around the inner core of the plaques were stained more intensely | only plaques having a relatively dense structure, consisting of Aβ fibrils, were stained, but not small and diffuse plaques
3 | NGAPNKIPRDRE ([dN]G[dA][dP][dN][dK][dI][dP][dR][dD][dR][dE]) [D5, dodecameric D-peptide selected by mirror image phage display against aggregation-nucleus-free AβpE3-x] | ring-shaped structures around the inner core of the plaques were stained more intensely | only plaques having a relatively dense structure, consisting of Aβ fibrils, were stained, but not small and diffuse plaques
4 | HTRFEYYVYHMS ([dH][dT][dR][dF][dE][dY][dY][dV][dY][dH][dM][dS]) [D7] | at the inner core of the plaques | stained only dense structures
